From the MegaScale stability set (Tsuboyama et al. 2023)

B1: EHEE_rd2_0196 (parent)
chain: TETRTFDSEEEAKKAQKEAEKQGRTVTITRRDDRWEVRFD

Variants of: B1
Test: folding stability dG (cDNA display proteolysis); higher = more stable
Settings: PBS, room temperature

Folding stability dG [kcal/mol]: each site, then its substitutions
A19: D 1.41 | N 1.72 | V 1.78 | I 2.47 | E 2.28 | G 2.75 | Y 3.25 | H 2.19 | M 3.04 | W 3.05 | S 1.97 | K 1.33 | Q 2.13 | T 1.27 | P 0.448 | F 3.12 | L 3.39 | R 1.21
G23: K 1.61 | D 1.39 | V 0.857 | W 1.64 | H 2.15 | L 1.47 | Q 1.67 | S 1.57 | A 1.56 | C 2.46 | F 1.81 | T 0.908 | M 1.57 | R 1.63 | I 0.786 | P 0.683 | Y 1.75 | N 2.01 | E 1.11
K17: N 2.82 | P 0.527 | R 3.13 | W 3.18 | S 3.02 | D 2.92 | F 3.13 | Y 3.23 | E 3.17 | A 3.25 | L 3.25 | M 3.21 | G 2.67 | V 3.15 | I 3.22 | T 2.91 | H 2.98 | Q 3.08
S8: D 2.27 | F 1.8 | R 2.12 | N 2.79 | W 1.13 | Q 1.82 | P 0.072 | Y 1.64 | A 1.68 | V 1.78 | I 1.77 | G 1.56 | M 1.63 | K 2.11 | L 2.02 | T 3.37 | E 1.66 | H 2.12
D7: V 2.51 | W 3.19 | Y 3.18
E9: P 1.92 | S 1.42 | R 1.49 | F 3.42 | T 0.823 | Y 3.58 | G 1.03 | K 1.66 | W 3.38 | M 2.38 | H 2.28 | I 2.73 | N 1.26 | D 1.47 | V 2.25 | Q 2.18 | L 3.33 | A 2.01
A15: Q 2.08 | F 4.24 | S 2.18 | E 2.24 | M 2.79 | I 2.69 | G 1.18 | D 1.13 | Y 3.95 | R 1.46 | L 2.76 | N 1.58 | K 1.45 | W 3.37 | T 2.04 | V 2.91 | P 0.28 | H 2.69
T25: L 2.77 | P 2.21 | H 3.16 | V 3.09 | Q 2.81 | G 2.32 | I 2.99 | E 2.28 | D 1.97 | R 3.32 | F 2.43 | K 3.13 | W 2.22 | S 2.9 | N 2.69 | A 2.83 | M 2.67
Q16: H 2.07 | K 3.04 | L 2.89 | N 0.943 | D 0.725 | R 2.63 | P 0.25 | C 2.99 | I 2.97 | F 2.97 | W 2.53 | G 2.99 | S 2.69 | E 2.45 | Y 2.83 | A 3.91 | V 3.18 | T 2.27 | M 3.32
E20: P 0.742 | T 2.52 | D 2 | H 2.64 | F 2.77 | I 2.85 | N 2.53 | A 2.88 | M 3.06 | K 2.4 | Q 2.86 | L 3.14 | Y 2.56 | V 2.67 | C 2.81 | G 2.13 | W 2.94 | R 2.46 | S 2.47
E10: A 2.86 | I 2.58 | P 1.88 | K 2.46 | G 2.21 | T 2.04 | V 2.58 | N 2.17 | C 3.04 | F 2.69 | H 2.5 | Y 2.71 | L 2.51 | D 2.76 | R 2.28 | Q 2.67 | W 2.93 | M 2.59 | S 2.18
Q22: M 3.24 | D 2.88 | A 3.08 | K 2.73 | T 2.82 | V 2.81 | R 2.84 | P 1.55 | C 3.26 | H 2.99 | F 2.79 | E 3.06 | W 2.8 | G 2.58 | N 3.02 | I 2.83 | L 3.19 | Y 2.73 | S 2.92
A12: K 0.241 | I 0.724 | M 1.9 | D 0.06 | F 1.05 | S 1.06 | Y 1.08 | N 0.221 | R 0.086 | W 0.806 | P 0.214 | G 0.827 | E 0.203 | H 0.139 | V 1.98 | T 1.04 | Q 0.157 | L 1.49
K13: N 2.64 | T 2.75 | C 3.06 | L 3.5 | H 2.72 | E 2.63 | I 3.37 | D 2.09 | Y 3.29 | W 2.95 | G 2.02 | Q 2.97 | M 3.18 | R 3.13 | P 0.105 | S 2.45 | F 3.23 | A 2.54 | V 3.2
E11: S 2.18 | I 1.46 | Q 2.54 | H 1.61 | M 2.47 | D 2.95 | V 1.43 | R 1.47 | A 2.75 | F 1.47 | W 1.28 | K 2.21 | Y 1.46 | L 2.4 | N 1.96 | P 0.769 | G 2.34 | T 1.75
E18: C 3 | Q 2.65 | K 2.36 | G 1.75 | M 2.81 | S 2.38 | W 2.63 | P 0.538 | Y 2.31 | N 2.46 | R 2.46 | I 2.74 | L 2.79 | T 2.42 | D 2.87 | H 2.55 | A 2.79 | F 2.32 | V 2.58
R24: L 3.23 | D 2.29 | A 2.56 | G 1.93 | Q 2.84 | I 3.23 | H 3 | Y 3.62 | V 2.85 | K 3.01 | T 2.22 | N 2.13 | F 3.59 | M 3.32 | E 2 | S 2.19 | W 3.24 | P 0.456
K21: T 2.85 | I 2.82 | Y 2.64 | M 3.11 | R 3.11 | L 3.22 | N 2.96 | H 2.82 | E 3.18 | G 3.06 | W 2.55 | A 3.41 | V 2.72 | F 2.66 | S 3.19 | Q 3.11 | D 3.08 | P 1.11
K14: Q 3.23 | P 0.356 | G 2.5 | Y 2.95 | N 3.05 | C 3.46 | H 3.05 | A 3.29 | D 2.9 | I 3.07 | S 2.89 | E 3.15 | W 3.02 | M 3.23 | T 2.9 | L 3.23 | R 3.02 | V 2.94 | F 3.02
